# Source: publication PMC12187869, “Transport of the uremic toxin symmetric dimethylarginine (SDMA) by renal transport proteins” (Amino Acids, 2025)
# System: T1, CN=C(NC)NCCC[C@H](N)C(=O)O
# T1 construct: HEK293 cells stably expressing human CAT1
# Assay: [3H]SDMA uptake kinetics (Km) and efflux in HEK-CAT1 cells
# Type: cell-based, Homo sapiens
# Sequence of CAT1 (Homo sapiens) (chain, as listed by the source): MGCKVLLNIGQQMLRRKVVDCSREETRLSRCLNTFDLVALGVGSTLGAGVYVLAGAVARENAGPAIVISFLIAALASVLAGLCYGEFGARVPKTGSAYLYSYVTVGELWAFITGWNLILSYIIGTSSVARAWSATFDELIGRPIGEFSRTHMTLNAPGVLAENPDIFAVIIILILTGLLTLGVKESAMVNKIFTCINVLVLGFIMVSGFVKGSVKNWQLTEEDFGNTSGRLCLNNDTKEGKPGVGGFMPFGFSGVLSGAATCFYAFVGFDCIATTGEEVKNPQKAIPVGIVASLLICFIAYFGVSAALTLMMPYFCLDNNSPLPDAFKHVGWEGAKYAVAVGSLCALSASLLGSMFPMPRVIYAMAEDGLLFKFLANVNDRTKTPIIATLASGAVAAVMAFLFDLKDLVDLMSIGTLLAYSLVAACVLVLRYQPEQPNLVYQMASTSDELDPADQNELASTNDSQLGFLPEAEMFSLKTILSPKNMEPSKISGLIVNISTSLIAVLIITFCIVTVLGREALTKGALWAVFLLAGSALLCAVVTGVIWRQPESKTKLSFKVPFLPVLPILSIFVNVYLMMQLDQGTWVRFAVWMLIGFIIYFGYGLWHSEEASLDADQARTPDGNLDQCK
substance,measurement,value
CAT1 (Homo sapiens),Km,246 µM
